The values that follow come from patent US20110065645A1, “Compositions and Methods for Modulating Neuron Degeneration and Neuron Guidance” (The Regents of the University of California, priority 2009, published 2011).

“Also recorded” adds a separate entry of the source.

In one experiment the test system is PKA. Nature of the experiment: Western blot of activated phospho-PKA (Thr197) in dissociated commissural neurons. The class given is cell-based, rat. Particulars: Shh-N 2.5 μg/ml for one hour; KT5720 25 μM for 15 minutes. Here is the method: To confirm that PKA activity can be reduced in commissural neurons exposed to Shh, we treated dissociated spinal cord commissural neurons with Shh and analyzed the level of activated PKA. 24 hr after plating, commissural neurons were serum starved overnight and then treated with 2.5 μg/ml (150 nM) of Shh-N recombinant protein (R&D) for one hour prior to lysate collection. Forskolin (25 μM), and the PKA inhibitor, KT5720 (25 μM) were added to the commissural neuron culture as controls for 15 minutes before lysis. We then tested these lysates for levels of activated PKA with an antibody that specifically recognizes an activated form of the catalytic domain of PKA (phosphorylated at Thr197).
Dissociated commissural neuronal culture. Spinal cords were isolated from rat E13 embryos and commissural neurons were dissociated as previously described.^(8) In brief, embryos were treated with Dispase I (0.25 mg/ml; D4818, Sigma) for 5 minutes prior isolation of spinal cords, followed by collection of spinal cord dorsal domains by microdissection and incubation with Trypsin (1 mg/ml; T47-99, Sigma) for 10-12 min in a 37° C. water bath. The tissue was then triturated with flamed glass pipettes and a single cell suspension was plated on poly-D-lysine (PDL; 20 μg/ml) and laminin (10 μg/ml) coated coverslips or 12 well plates (Corning). More than 90% cells in these cultures express TAG-1, a marker for spinal cord commissural neurons (FIG. 35B). 10^5 dissociated cells were plated on PDL/laminin coated coverslips and cultured for 24 hrs before processed for immunohistochemistry as described above. For Western blot analysis, 10^6 dissociated cells were plated on PDL/laminin coated 12-well tissue culture plates and cultured initially for 24 hrs in dorsal explant media (replenished daily) then changed to low serum medium overnight prior to treatments. […]
(In general: A western blot detects proteins with antibodies after separation by electrophoresis.)

In experiment [1] the test system is pre-crossing commissural axons. Nature of the experiment: Precrossing commissural explant assay in collagen gel. The note with it: collagen gel containing Netrin-1 and Shh expressing COS-7 cells. The class given is cell-based, rat. From the text: Shh activates Semaphorin repulsion in commissural axons. We investigated the mechanisms by which Semaphorin repulsion in commissural axons is switched on during spinal cord midline pathfinding. Commissural neuron cell bodies are located in the dorsal spinal cord and initially extend axons to the ventral midline, the floor plate, in the process of several days (from late E8.9/early E9.5 in mouse and late E10 and E11 in rats till at least E12.5 in mouse and E14 in rat). The commissural axons in the rostral (anterior) spinal cord differentiate and their axons develop earlier than their caudal (posterior) counterparts. At each axis level, the more dorsal populations tend to differentiate and extend axons later than the ventral population in the dorsal spinal cord during this stage of development. […] To quantify these effects, the total length of axons extending towards (proximal) or away (distal) from cell aggregates (FIG. 31B) was calculated in each experiment as the ratio of axons growing proximally (P) divided by axons growing distally (D) (FIG. 31i). […]
Precrossing commissural explant assay. […] For quantification the total length of axon bundle was measured in the proximal (P) and distal (D) quadrants as depicted in FIG. 31B. […]

Another experiment deals with Fzd3-mCherry (mouse) (UniProt Q61086). Nature of the experiment: cell-based or functional assay.
Chain of Fzd3-mCherry (mouse) (Q61086 23-666): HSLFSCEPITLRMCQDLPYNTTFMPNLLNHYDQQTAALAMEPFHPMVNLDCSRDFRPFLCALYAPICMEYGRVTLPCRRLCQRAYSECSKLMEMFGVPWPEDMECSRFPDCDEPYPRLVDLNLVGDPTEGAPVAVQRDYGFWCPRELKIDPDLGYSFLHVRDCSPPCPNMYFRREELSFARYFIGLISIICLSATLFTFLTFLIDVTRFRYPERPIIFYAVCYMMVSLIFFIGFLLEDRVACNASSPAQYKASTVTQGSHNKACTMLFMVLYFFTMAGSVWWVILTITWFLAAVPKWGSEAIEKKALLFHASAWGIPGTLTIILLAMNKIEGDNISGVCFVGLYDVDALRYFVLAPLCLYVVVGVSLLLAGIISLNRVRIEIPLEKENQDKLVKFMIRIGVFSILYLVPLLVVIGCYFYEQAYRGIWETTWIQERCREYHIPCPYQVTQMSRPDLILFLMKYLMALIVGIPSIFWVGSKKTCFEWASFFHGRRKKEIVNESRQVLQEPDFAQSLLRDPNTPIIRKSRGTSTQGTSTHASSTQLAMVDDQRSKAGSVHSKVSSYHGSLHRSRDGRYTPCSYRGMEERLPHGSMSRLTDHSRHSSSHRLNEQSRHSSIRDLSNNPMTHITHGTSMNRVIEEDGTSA
The target of the next experiment is Fzd3-EGFP (mouse) (UniProt Q61086). Nature of the experiment: cell-based or functional assay.
Chain of Fzd3-EGFP (mouse) (Q61086 23-666): as above
Another experiment has as its system TH axons. Nature of the experiment: mdDA explant assay with Wnt-expressing cell clumps, anti-TH staining. Particulars: embryonic mdDA explants from ventral midbrain. The experiment is classed as cell-based. From the text: FIG. 7. Multiple Wnts attract TH axons in explant assays. FIG. 7 depicts histogram showing that embryonic mdDA explants dissected out from the ventral midbrain and cultured with cell clumps expressing various Wnts.
3c: Use of explant assays to test the effects of Wnts on mdDA and 5-HT axon growth and guidance. To directly address whether Wnts regulate the guidance of these monoaminergic axons, we use explant assays to test the function of the identified Wnts and determine whether they are attractive or repulsive. […] We plan to continue test additional Wnts especially those which are expressed in the brainstem and the forebrain targets using the same assay.

For a further experiment, the system named is β-catenin. Nature of the experiment: β-catenin immunostaining in commissural axon growth cones. The experiment is classed as cell-based. Particulars: bath application; LiCl 2 mM. From the text: To understand how atypical PKC/Par pathway regulates axon guidance, we set out to determine the subcellular localization of aPKC, their substrates and downstream cellular effectors. […] Thus, our high-resolution confocal imaging detects a tendency of β-catenin being concentrated to one side of the growth cone (FIG. 9A). It is possible that there is low level of Wnt proteins in the culture (many neurons express Wnts). […] Therefore, it is also possible that intrinsic aPKC signaling can create chirality within the growth cone with out extrinsic signals. Such intrinsic polarity may then robustly regulate cellular morphology upon directional instructions from the environment such as a Wnt gradient. It is well known that GSK3β phosphorylates β-catenin, which then leads to proteosome-mediated degradation of β-catenin. And it is also known that GSK3β is phosphorylated and inhibited by PKCζ^(1,2). Therefore, inhibiting GSK3β or the proteosome activity generally should increase β-catenin level throughout the growth cone, canceling the asymmetry. […] We are now testing the hypothesis that Wnt proteins may locally activate PKCζ, which then inhibits GSK3β and locally stabilizes β-catenin, which is part of the asymmetric cellular mechanism leading to directional choice of a growth cone. We examine the localization of β-catenin in post-crossing commissural axon growth cones in the “post-crossing” assay and “open-book” assays.

Take “Shh-N: recombinant mouse Sonic Hedgehog, amino-terminal peptide (R&D); also secreted by transfected COS-7 cells”: the “level of activated PKA” value in the experiment with PKA was “reduce the level of activated PKA; also recorded: significant reduction of activated PKA”. In addition, in experiment [1], the “response of pre-crossing commissural axons to Semaphorins” value was “repelled by Sema3B- and Sema3F-secreting cell clumps”.

Take `c1ccc2c(Oc3nc(Nc4ccc(N5CCOCC5)cc4)c4ncn(C5CCCCC5)c4n3)cccc2c1` [Purmorphamine, reference compound]: the “level of activated PKA” value with PKA is “reduce the level of activated PKA”.

Consider Dvl1-EGFP (from UniProt P51141 1-695), for which the Fzd3 level at the cell membrane (surface biotinylation, avidin IP, anti-mCherry IB) in HEK293T cells with Fzd3-mCherry (mouse) was found to be 3 fold.

“recombinant Wnt5a (R&D Systems) (ligand)” showed a commissural axon length after 24 hours on Wnt5a-coated coverslips with Fzd3-EGFP (mouse) of 36%.

B1: Wnt7b: Wnt family protein expressed by cell clumps in the TH axon explant assay (protein, UniProt P56706 25-349, looked up)
Protein Wnt-7b: ALSSVVALGANIICNKIPGLAPRQRAICQSRPDAIIVIGEGAQMGINECQYQFRFGRWNCSALGEKTVFGQELRVGSREAAFTYAITAAGVAHAVTAACSQGNLSNCGCDREKQGYYNQAEGWKWGGCSADVRYGIDFSRRFVDAREIKKNARRLMNLHNNEAGRKVLEDRMQLECKCHGVSGSCTTKTCWTTLPKFREVGHLLKEKYNAAVQVEVVRASRLRQPTFLRIKQLRSYQKPMETDLVYIEKSPNYCEEDAATGSVGTQGRLCNRTSPGADGCDTMCCGRGYNTHQYTKVWQCNCKFHWCCFVKCNTCSERTEVFTCK
With B1, in the experiment on TH axons, the “attraction of TH axons” value was “attracts the TH-positive neuron axons”.

B2: Wnt3a: purified Wnt3a protein; also expressed by cell clumps in explant assays (protein, UniProt P56704 19-352, looked up)
Protein Wnt-3a: SYPIWWSLAVGPQYSSLGSQPILCASIPGLVPKQLRFCRNYVEIMPSVAEGIKIGIQECQHQFRGRRWNCTTVHDSLAIFGPVLDKATRESAFVHAIASAGVAFAVTRSCAEGTAAICGCSSRHQGSPGKGWKWGGCSEDIEFGGMVSREFADARENRPDARSAMNRHNNEAGRQAIASHMHLKCKCHGLSGSCEVKTCWWSQPDFRAIGDFLKDKYDSASEMVVEKHRESRGWVETLRPRYTYFKVPTERDLVYYEASPNFCEPNPETGSFGTRDRTCNVSSHGIDGCDLLCCGRGHNARAERRREKCRCVFHWCCYVSCQECTRVYDVHTCK
B2: the “β-catenin level and asymmetry in the growth cone” value in the experiment on β-catenin is “increased the levels of β-catenin throughout the growth cone”. Also, the “attraction of TH axons” value in the experiment with TH axons was “strongest effect”.
